Assay: yeast display, Sf9 membrane polyspecificity reagent, FACS + sequencing; frameworks hold sequencing errors
Summary of the method: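 A nanobody's polyreactivity label depends on the gate it was sorted from. Yeast display cells were stained with 10% biotinylated, detergent-solubilized Sf9 membrane reagent for 1 hour at 4 °C, enriched on streptavidin microbeads and sorted by FACS. The low and high (top ~1%) gates were set on anti-HA fluorescence for expression and streptavidin fluorescence for reagent binding.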

Row | Sequence | polyreactivity (PSR sort gate)
1 | QVQLVESGGGLVQAGGSLRLSCAASGRTFQENGMGWYRQAPGKERELVATISQRGTSTYYADSVKGRFTISRDNAKNTVYLQMNSLKPEDTAVEYCARRRVYRWYTGDYWGQGTQVTVSS | low polyreactivity
2 | QVQLVESGGGLVQAGGSLRLSCGASGRTFGHYDLGLYRQEPGTEREFVANIRQSTGSTDYADSVKGRFTISRDNAKITVYLQMNSLKPEDTEVYYCASPWYYYVEHRQGSYILDYWGQGTQVTVSS | low polyreactivity
3 | QVQLVESGGGLVQAGGSLRLSCAASRFYTMGWYRPAPGKERELVAAISWSGGDTYYADSVKGRYTISRDNAKNTVYLQMNSLKPEDPAVFYCNKDYSFEYSLRHRDYWGQGTQVTVSS | low polyreactivity
4 | QVQLVESGGGLVQAGGSLRLSCAASGRTFASNAMGWYTQAPGKERELVAAITISGGRTYYADSVKGRFTISRDNAKNTVYLQMNSLIPEDTAVYYCAAAKHSWRPSYYWGGYWGQGTQVTVSS | low polyreactivity
5 | QVQLVESGGGLVQAGGSLRLSCAASGSIFAVYAMGWYRQAPGKERELVAAISSRGSSTYYADSVKGRFTISRDNAKNTVYLQMNSLIPEDTEVYYCAARPGIRSYPPGYGYWGQGTQVTVSS | low polyreactivity
6 | QVQLVESGGGLVQAGGTLRLSCDASGFIFPGYAKGWSRNATGKQREFVAAISRSGGSTYYADSVKGRFTISRDNAKNTVYLQMNSLKPEDTAVYYCATRARGYTGYDYWGQGTQVTVSS | high polyreactivity
7 | QVQLVESGGAFVQAGGSLRLSCAASGIIFERNAMGWYRQAPGNERELVAAISGGGSTNYADSVKGRFTISRDNEMNTVYLQRISLKPDDTAVYYCAGKAARRRGYYYWGQGTQVTVSS | high polyreactivity
8 | QVQLVESGGGLVQAGGSLRLSGAASGRTLYCYAMGWSRQAPGKEREFVAAMSRSGGSTYYADSVKGRFTISRDNAKNTVYLQMNRLKPEETAVYYCADDRSFLQIYKAGPQYRSNYWGQGTQVTVSS | high polyreactivity
9 | QVQLVESGGGLLQAGGSLRLSCAASGSTFVYYAMGWYRQAPGKERELVAAISRSGGNTYYADSVKGRITISRDNAKNTVYLQRNSLKPEDTAVYYSAARSYGVQYYYWGQGTKVTVSS | high polyreactivity
10 | QVQLGESGGGLVQAGGSLRLSCAASGSTFYYYAMGWYRQAPGKERELVASINYSAGRTYYADSVKGRFTISRDNAKNTVYLQMNSLKPEDTAVYYCAAETPSGYYPQQYDYYWGQGTQVTVSS | high polyreactivity
11 | QVQLVESGGGLVQAGGSLRLSCAASGRTFYLYTMGWYRQAPGKERELVAAITRGGNTYYADSVKGRFTISRDNAKNTVYLQMNSLKPEDTAVYYCAAADYTTPVPYGRKGFDYWGQGTQVTVSS | low polyreactivity
12 | QVQLVESGGGLVQAGGSLRLSCAASGSIFRSYAMGWYRQAPGKERELVAAITFSGGRTYYADSVKGRFTISRDNAKNTVYLQMNSLKPEDTGVYYCNARHRNLAEYDYWGQGTQVTVSS | low polyreactivity
13 | QVQLVESGGGLVQAGGSLRLSCAASGSTFYSYAMGWYRQAPGKERELVAAISWDGGRTYYADSVKGRFTISRDNAKNTVYLQMNSLKPEDTAVYYCSADYPTYRHYYWGQGTQVTVSS | low polyreactivity
14 | QVQLVESRGGLVQAGGSLRLSCAASGSTFTHYAMGRYRHAPGKERELVAAISWGGGTTRYADSVKGRFTISRDNAKNSVYLQMNSLKPVDTAVYYCAKRVRTGSVGNFNYWGQGTQVSVSS | high polyreactivity
15 | QVQLVESGGGLVQAGGSLRLSCAASGIIFGTYAMGWYRQAPGKERELVAAIRRSGTGTYYADSVKGRFTISRDNAKNTVYLQMNSLKPEDTAVDYCNVVRSYAYDSWGQGTQVTVSS | high polyreactivity
16 | QVQLQESGGGLVQAGGSLLSCAASGTISWVDEMGWYRQAPGNERELVAGIAGGGNTNYADSVKGRYTISRDNAKNTVYLQMNSLDTAVYYCAVVGFGRGTHIYWGQGTQVTVSS | high polyreactivity
17 | QVQLVESGGGLVQAGGSLRLSCAASGFTFFVYAMGWYRQAPGKERELVAVITSGGTTNYADSVKGRFTISRDNAKNTVYLQMNSLKPEDTAVYYCATDNGGIPKYVPYDFWGQGTQVTVSS | high polyreactivity
18 | QVQLVQSGGGLVQAGGSLRLSCAASGSTFARNAMGWYRQAPGKERELVAAISSSGGRTYYADSVKGRFTISRDHAKNSVYLQMNSLKPEYTEVYYCAAAFSLGMYWGQGTQGTVSS | high polyreactivity
19 | QVQLVESGGGLVQAGGSHRLSCAASGSTFQYYAMGWYRQAPGKERELVAAISKSGGITYYADSVKGRFTISRDYAKYTVYLQMNILKPEDTAVYYCNAYSASGYDYWGQGSQVTVSS | high polyreactivity
20 | QVQLVESGGGLVQAGGSLRLSCAASGSIFYRNAMGWYRQATGKERELVAAISASGGSTYYADSVKGRFTISRDNAKNTVYLQINSLKPEDTAVYYCAVEYRKSRSYYPYYYWGQGTQVTVSS | high polyreactivity
21 | QVQLVESGGGLVQAGGSLRLSCAASGSIFTFYAMGWYRQAPGKEREVVARITNGGNTNYADSGKGRFTISRDNAKNTVYLQMNSLKPEDTEVYYCAARWYWGWTRGDYWGQRTQVTVSS | high polyreactivity
22 | QVQLVESGGGLVQEGGSLRLSCAASGFTIRTYAMGWYRQAPGKERELVAAINTGGGTNYADSVKGRFTISRDNAKNTVYLQMNSLKPEDTAVYYCNSVHYYYYYWYSLYDSWGKGTQVTVSS | high polyreactivity

Row | Sequence | polyreactivity (PSR sort gate)
23 | QVQIVESGGGLFQAGGSRRLSCAASGVMFSYYAMGWYRQAPGKDRELVAAISRRVGSTYYADSVKGRFTISRDNAKNTVYLQMNSLITQVTAVYYWNAYLYSRYEFDYWVQGTQVTVSS | high polyreactivity
24 | QVQLVESVGGLVQAGGSLRLSCAASGRTFGRKALVWYTQAPGKERELVAAISTSGSRTYYADSVKGRFTISRDNAKNTVYLQLNSLTPEDTAVYYCYAYGVSRGSYGTRGYWGQGTQVTVSS | high polyreactivity
25 | QVQLVESGGGLVQAGGSLRLSCAASGFTFGSYAMGWYRQATGKERELVAVITRSGRTNYADSVKGRFTITRDNAKNTVFLQMNSMKPEDTAVYYCNADDVDDEVSPDLTEMDNWGLGTQVTVSS | low polyreactivity
26 | QVQLVDSGGGLVQAGGSLRLSCAASGITFKRYAMGWYRQAPGKERELVAAITGIGGSTYYADSVKGRFTISSDNAKNTVYLQMNSLKPEDTAVYYCAARNNKKYDYWGQGTQVTVSS | high polyreactivity
27 | QVQLVESGGGLVQAGGSLRLSCAASGNTLRVYALGWYRQAPGKERELVAAISYSSVNTYYADSVKGRFTISRDNAKNTVYLQMNSLKPEDTAVYYCAADYYYYRRTQYDLRGYPYYYWGQGTQVTVSS | low polyreactivity
28 | QVQLVESGGGLVQAGGSLRLSCAASGSIVYYYAMGWYRQAPGKERELVAAITRSGGSTYYADSVKGRFTISRDNAKNTVYLQMNSLKPEDTSVYYCAKDAHAYRDLDYWGQGTQVTVSS | low polyreactivity
29 | QVHLQESGGGLVQAGGSLRLSCAASGNIVDADIMGWYRQAPGKERELVASITDGGSTNYADSVKGRFTISRDNAKNTVYLQMNSLKPEDTAVYYCAAIGYPDIPTYFDYDSEYFYWGQGTQVTVSS | low polyreactivity
30 | QVQLVESGGGLVQAGGSLRLSCAASGFIFYYYAMGWYRQAPGKERELVAGITATGGSTYYEDSVKGRFTISRDNAKNTVYLQMNSLKPEDTAVYYCAAEHGRRATYTWWVIYDYWGQGTQVTVSS | low polyreactivity
31 | QVQLVESWGGLVQAGGSLRLSCAASGITFFTYAMGWYRQAPGKERELVAGISKTGGRSYYADSVKGRFTISRDNSKNTVYLQMNSLKPDDTAVYFCAAYFRSDYGYWGQGNQVTVSS | high polyreactivity
32 | QVQLVESGGGLVQAGGSLPLSCAASGRTFPFNALGWYRQAPGKEREFVAAISVGGGSTYADSVKGRFTISRDNAKNTFYLQMNSLKPEDTAVYYCAAAYTKLYYYWGQGTQVTVSS | low polyreactivity
33 | QVQLVESGGRLVQAGASLRLSCAASGSTFSTNAMGWYRQAPGKEREFVPAISRSGGRTYYADSVKGRFTISRDNAKNTVYLQMNSLKRDDTAVYYCAAGITHEGRDGDYWGQGTQVTVSS | high polyreactivity
34 | QDQLVESGGGLVQAGGSLRLSCDASGSTFLVYAMGWYRQAPGKERELVAAITQIDGSTYYADSVKGRFTISRDNAKNTVYLQMNSLKPEDTAVYYCAARYFWTYEYDYWGHGTQVTVSS | low polyreactivity
35 | QVQLVESGGGLLQAGGILRLSCAASGRIFFANAMGWYRQAPGKERELVASITRRSGGTYYADSVKGRFTISRDNAKNTVYLQMNSLKPEDTAVYYCAARYTFPKALYYYWGQGTQVTVSS | high polyreactivity
36 | QVQLVESGGGLVQAGGSLRLSCAASGSTFYRYAMGWYRQAPGKERELVAAISNSGGSTNYADSVKGRFTISRDNAKNTVYLQMNSLKPEDTAVYYCAADPYDLVWVEDYDYWGQGTQVTVSS | high polyreactivity
37 | QVQLVESGGGLVQAGGSLRLSCAASGRTFSHYAMGWYRQAPGKVRELVADISWNGGRTYYADSVKGRFTISRDNAKNTVYLQMNSLKPEDTAVYYCAKVRYWAWSYEYWGQGTQVTVSS | high polyreactivity
38 | QVQLVESGGGLVQAGGSLRLSCAASGINFYAYAMGWYRKAPGKERELVAAITFSAVSTYYADSVKGRFTISRDNAKNSVYLQMNSLKPEDTAVYYCAAEAYKQGVWDYDYWGQGTQVTVSS | low polyreactivity
39 | QVQLVESGGGLVQAGGSLRLSCAASGTFDTYSMGWNRQAPGKERELVADISSVGSTYYADSVKWRFTISRDNAKNTVYLQMNSLKPEDTAVYYCAATYPYPYYYIEYYYWGQGTQVTVSS | low polyreactivity
40 | QVQLVESVGGLVQAGGSLRLSCAASGGIFNTYAMGWYRQAPGKEREFVAANSRRGGGTYYADSVKGRFTISRDNAKNTVYLQMNSLKPEDTAVYYCNADVKRGSRGYGSDHWGQGTQVTVSS | high polyreactivity
41 | QVQLVESGGGLVQAGGSLRLSCAASGSTLGRNAMGWYRQAPGKERELVAGIDGSAGSTYYADSVKGRFTISRDNAKNTVYLQMNSLKPEDTAVYYCNADVIDLDYDYWGQGTQVTVSS | low polyreactivity
42 | QVQLVESGGGLVQAGGSLRLSCAASGIIFRGNVMGWYRQAPGKERELVAAISGSGGRTYYADSVKGRFTISRDNAKNTVYLQMNSLKPEVTAVYYCNADKAIRYDYWGQGPQVTVSS | high polyreactivity
43 | QVQLVESGGGLVQAGGSLRLSCAASGSTFPYYAMGRYRQAPGKERELVAAISQNGGSTYYADSVKGRFTISRDNAKNTVYLQMNSLKPEDTAVYYCNADGVGGEYRLSGYDYWGQGTQVTVSS | low polyreactivity

Source: the nanobody polyreactivity screen of Harvey et al. (2022)
